One substance from article PMC5960627 can be followed below.

What all share (assay): other fluorescence titration
The target of assay [1] is BSAT1R_(309-327), FRET biosensor with AT1R a.a. 309-327 (SMD4JM) between EYFPc and ECFP (human).
The target of assay [2] is BSAT1R_(125-141mut), FRET biosensor with mutant AT1R a.a. 125-141 (SMD2) between EYFPc and ECFP (human).
The target of assay [3] is BSAT1R_(215-242mut), FRET biosensor with mutant AT1R a.a. 215-242 (SMD3) between EYFPc and ECFP (human).
Assay [4] addresses BSAT1R_(125-141), FRET biosensor with AT1R a.a. 125-141 (SMD2) between EYFPc and ECFP (human).
The target in assay [5] is BSAT1R_(309-327mut), FRET biosensor with mutant AT1R a.a. 309-327 (SMD4JM) between EYFPc and ECFP (human).
The target in assay [6] is BSAT1R_(215-242), FRET biosensor with AT1R a.a. 215-242 (entire SMD3) between EYFPc and ECFP (human).
The target in assay [7] is BSAT1R_(215-232), FRET biosensor with AT1R a.a. 215-232 (part of SMD3) between EYFPc and ECFP (human).
In assay [8] the target is BSAT1R_(309-327), FRET biosensor with AT1R a.a. 309-327 (SMD4JM) between EYFPc and ECFP (human). This is another data set of the same source.

Read-outs that look alike come from different tables or passages of the source.

Sequence of BSAT1R_(215-242), FRET biosensor with AT1R a.a. 215-242 (entire SMD3) between EYFPc and ECFP (human) (P30556 215-242): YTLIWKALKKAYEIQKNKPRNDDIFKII

For the substance “Calmodulin (from UniProt P0DP23 1-149) (natural protein)”, in assay [1], the EC50(Ca2+) of the interaction, species Sp1 was 310 nM. The results for the EC50(Ca2+) of the interaction, species Sp2 in assay [1] and in assay [8] were 3170 nM and 3180 nM, respectively. For the same substance, the EC50(Ca2+) of the interaction in assay [2] came to 17600 nM; in assay [3] it was 1490 nM; in assay [4] it was 4100 nM; in assay [6], 150 nM; in assay [7], 300 nM. In addition, the EC50(Ca2+) of the interaction, species Sp1mut in assay [5] came to 770 nM. This substance displayed an EC50(Ca2+) of the interaction, species Sp2mut in assay [5] of 9600 nM.
